Results on one molecule are retold here after paper PMC5179221 (2017).

The assay deals with NCoR peptide (Homo sapiens, UniProt O75376). Nature of the assay: fluorescence polarization. On the technique in general: Polarisation of emitted light reports the rotation of a fluorescent probe.
Chain of NCoR peptide (O75376 whole entry): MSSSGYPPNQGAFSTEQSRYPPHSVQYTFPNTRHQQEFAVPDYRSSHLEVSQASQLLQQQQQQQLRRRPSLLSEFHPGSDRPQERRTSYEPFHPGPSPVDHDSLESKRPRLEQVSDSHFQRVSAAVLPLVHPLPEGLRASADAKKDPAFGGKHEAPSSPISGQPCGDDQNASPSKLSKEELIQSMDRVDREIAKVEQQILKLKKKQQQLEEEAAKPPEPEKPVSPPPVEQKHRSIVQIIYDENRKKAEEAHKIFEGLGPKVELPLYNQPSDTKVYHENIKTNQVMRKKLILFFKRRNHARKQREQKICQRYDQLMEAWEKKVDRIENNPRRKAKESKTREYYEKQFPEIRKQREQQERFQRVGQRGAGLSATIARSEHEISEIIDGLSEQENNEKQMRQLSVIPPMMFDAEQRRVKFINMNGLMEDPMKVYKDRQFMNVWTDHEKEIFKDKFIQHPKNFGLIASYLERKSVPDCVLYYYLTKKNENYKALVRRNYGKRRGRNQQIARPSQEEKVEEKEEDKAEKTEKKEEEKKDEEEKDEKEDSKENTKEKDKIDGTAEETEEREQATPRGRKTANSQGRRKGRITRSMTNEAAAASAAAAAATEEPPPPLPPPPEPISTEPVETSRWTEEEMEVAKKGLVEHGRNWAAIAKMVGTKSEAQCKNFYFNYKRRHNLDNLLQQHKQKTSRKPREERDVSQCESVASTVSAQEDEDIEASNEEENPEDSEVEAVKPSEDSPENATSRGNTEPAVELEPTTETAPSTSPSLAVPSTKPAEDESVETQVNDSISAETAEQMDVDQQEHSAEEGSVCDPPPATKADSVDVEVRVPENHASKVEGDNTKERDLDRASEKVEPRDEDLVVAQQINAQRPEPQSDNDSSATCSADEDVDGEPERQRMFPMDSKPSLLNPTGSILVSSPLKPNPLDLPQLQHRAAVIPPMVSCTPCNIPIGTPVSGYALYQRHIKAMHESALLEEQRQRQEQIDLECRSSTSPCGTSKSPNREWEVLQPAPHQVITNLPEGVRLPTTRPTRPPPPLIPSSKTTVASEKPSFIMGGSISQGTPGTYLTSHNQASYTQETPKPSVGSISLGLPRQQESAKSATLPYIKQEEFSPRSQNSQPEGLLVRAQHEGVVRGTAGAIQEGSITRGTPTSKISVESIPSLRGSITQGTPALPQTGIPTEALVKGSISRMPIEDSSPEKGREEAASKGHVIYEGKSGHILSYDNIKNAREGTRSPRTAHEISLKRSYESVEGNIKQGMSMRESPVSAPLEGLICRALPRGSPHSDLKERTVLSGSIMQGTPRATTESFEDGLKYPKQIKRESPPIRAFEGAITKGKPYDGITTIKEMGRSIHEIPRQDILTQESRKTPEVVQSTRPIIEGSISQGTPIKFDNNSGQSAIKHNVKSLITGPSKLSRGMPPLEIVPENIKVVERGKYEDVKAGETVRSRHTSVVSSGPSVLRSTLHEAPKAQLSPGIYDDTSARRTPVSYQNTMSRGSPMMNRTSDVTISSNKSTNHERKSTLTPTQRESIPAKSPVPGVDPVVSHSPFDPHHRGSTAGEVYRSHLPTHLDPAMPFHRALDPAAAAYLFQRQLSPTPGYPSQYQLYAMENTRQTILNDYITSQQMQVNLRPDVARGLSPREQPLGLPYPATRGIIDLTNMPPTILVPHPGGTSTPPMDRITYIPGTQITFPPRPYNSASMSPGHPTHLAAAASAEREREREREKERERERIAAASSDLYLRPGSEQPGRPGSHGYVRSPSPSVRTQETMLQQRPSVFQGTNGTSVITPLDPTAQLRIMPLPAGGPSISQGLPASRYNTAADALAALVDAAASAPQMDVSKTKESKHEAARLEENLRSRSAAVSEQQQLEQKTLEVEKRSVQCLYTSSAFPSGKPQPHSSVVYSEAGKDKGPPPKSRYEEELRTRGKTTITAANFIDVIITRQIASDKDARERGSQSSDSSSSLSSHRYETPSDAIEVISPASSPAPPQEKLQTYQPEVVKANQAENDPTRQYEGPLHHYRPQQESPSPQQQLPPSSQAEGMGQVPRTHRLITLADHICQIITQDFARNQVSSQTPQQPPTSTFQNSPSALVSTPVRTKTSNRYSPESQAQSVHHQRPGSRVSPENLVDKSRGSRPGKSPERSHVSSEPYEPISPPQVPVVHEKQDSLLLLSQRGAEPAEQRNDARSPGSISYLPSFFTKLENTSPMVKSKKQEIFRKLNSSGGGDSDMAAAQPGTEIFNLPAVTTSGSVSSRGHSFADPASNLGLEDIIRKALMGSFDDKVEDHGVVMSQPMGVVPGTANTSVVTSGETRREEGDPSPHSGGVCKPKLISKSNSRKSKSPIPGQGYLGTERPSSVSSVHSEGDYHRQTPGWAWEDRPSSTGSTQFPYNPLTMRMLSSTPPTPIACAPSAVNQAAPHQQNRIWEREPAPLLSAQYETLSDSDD

B1: PPARγ LBD LBD (protein)
chain: DLRALAKHLYDSYIKSFPLTKAKARAILTGKTTDKSPFVIYDMNSLMMGEDKIKFKHITPLQEQSKEVAIRIFQGCQFRSVEAVQEITEYAKSIPGFVNLDLNDQVTLLKYGVHEIIYTMLASLMNKDGVLISEGQGFMTREFLKSLRKPFGDFMEPKFEFAVKFNALELDDSDLAIFIAVIILSGDRPGLLNVKPIEDIQDNLLQALELQLKLNHPESSQLFAKLLQKMTDLRQIVTEHVQLLQVIKKTETDMSLHPLLQEIYKD
Take B1: binding was characterised by a dissociation constant (Kd) of 1400 nM.
